For one substance, fold reduction of the EC50 of NF-κB reporter activity of the CTLL-2 reporter cell line in the presence of EDA (coated 11-A-12 fibronectin) against no EDA results are on record in PMC7040017.

For this test, the target named is 11-A-12 recombinant fibronectin fragment, containing the EDA domain.

For the substance “F8 single-chain variable Fragment (scFv) linked to a single unit of murine GITRL (from UniProt Q7TS55 46-170)”, the fold reduction of the EC50 of NF-κB reporter activity of the CTLL-2 reporter cell line in the presence of EDA (coated 11-A-12 fibronectin) against no EDA stood at 5 fold.
